# Assay results: patent US20100003727
# Biological target: T1, lipoamide-containing aminomethyl transferase (GcvH, H-protein) of C. jeikeium
# T1 chain: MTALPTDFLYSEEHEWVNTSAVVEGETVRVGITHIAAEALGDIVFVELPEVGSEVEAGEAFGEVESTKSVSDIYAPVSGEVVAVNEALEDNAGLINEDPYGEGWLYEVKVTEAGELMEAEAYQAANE
protein,measurement,value
lipoyl transferase (LipB protein) of C. jeikeium (protein) MGFQQGSIRKANMGTTGTNDGATTPPANTSTPAVDIDVRDLGTVDYEDTWHLQANLAAQRAEEKIPDTILLLQHPPTYTAGKRTQDSDRPTNGLPVVDVDRGGRITWHGPGQLVAYPIIKLADPVDVVDYVRRLEQALIQTCEDLGLHGTGRVEGRSGVWLPAGVINGELKPARKIAAIGIRVTRGVTMHGVALNCDNTMEYYDHIVPCGLADAGVTTLTEELGRDVSVSDAYSSLAHNLVDALNGDLPVHS,"growth of serine-auxotrophic C. glutamicum OM264C transformants (pOM620AF, pOM621AR) on minimal glycine plates without serine and without lipoic acid","both transformants grew, while OM264C(pCLIK) did not"
